What all share (assay): purified protein, by the assay type
Substrate in data set [1]: CC(=O)NCCCC[C@H](NC(=O)[C@H](C)NC(=O)CNC(C)=O)C(=O)Nc1ccc2c(C)cc(=O)oc2c1
Also on record: fluorogenic AMC-conjugated acetyllysine peptide deacetylation, steady-state kinetics. An excerpt: To determine steady-state kinetic parameters for the hydrolysis of a variety of acetylpolyamine and acetyllysine substrates, we prepared full-length recombinant HDAC10 from human (H. sapiens, hHDAC10) and zebrafish (D. rerio, zHDAC10). The CDs of these orthologues are highly similar based on 63%/79% sequence identity/similarity; only full-length constructs yielded soluble proteins. We first assayed the lysine deacetylase activity of these constructs against two commercially available aminomethylcoumarin (AMC)-conjugated fluorogenic acetyllysine peptides, GAK(ac)-AMC and RGK(ac)-AMC (molecular structures of all substrates are shown in Supplementary Fig. 2). […] These measurements were consistent with earlier studies reporting that HDAC10 activity was not measurable using fluorogenic peptide substrates. We also tested activity with 11 non-fluorogenic acetyllysine substrates using a […] chromatography–mass spectrometry (LC–MS)-based discontinuous assay[17] to avoid potential steric clashes that might occur with the bulky AMC group. These substrates included K(ac)NL and GAK(ac)NLQ, which mimic the peptide segment containing K73 in the proposed HDAC10 substrate MutS homologue 2 (MSH2)[22]. Again, we observed no or very low catalytic activity (Fig. 2 and Supplementary Table 1). In comparison with its closest relative, the cytosolic isozyme HDAC6 (ref. [17]), HDAC10 was clearly not an efficient lysine deacetylase.

Substrate in data set [2]: CC(=O)NCCCCNCCCN
Further details: steady-state kinetics of acetylpolyamine deacetylation, discontinuous LC-MS after dansyl chloride derivatization. As to conditions: 50.0 °C. As to the method:
(§1) To study steady-state kinetics with non-fluorogenic peptide substrates and acetylpolyamines, a discontinuous LC–MS was employed based on the protocol of assaying nonfluorogenic acetyllysine peptide substrates for HDAC6 (ref. [17]). Assays were performed in triplicate. Briefly, 5 μl of enzyme (0.050–20 μM) in HEPES buffer (20 mM HEPES (pH 7.5), 100 mM NaCl, 5 mM KCl, 1 mM MgCl2) was added to 35 μl of substrate solution to initiate the reaction. After incubation for 15–60 min at room temperature, the reaction was quenched by addition of 50 μl of 20 mM dansyl chloride dissolved in acetonitrile followed by 10 μl of NaHCO3 (1.6 M, pH 10.0). The deacetylation products were derivatized with dansyl chloride at 50 °C for 2 hrs. The deacetylation products were detected by LC–MS using a Waters SQD equipped with an Acquity UPLC (Waters, Milford, MA, USA) and quantified by using the standard curves generated from the mass signals of the corresponding deacetylated polyamines and peptides. Inhibition of HDAC10 activity was measured by using 0.49 μM zHDAC10 with 192 μM N^8-acetylspermidine. Data were analysed by logistic regression for IC50 determination and the inhibition constant Ki was calculated based on the Cheng-Prusoff equation, Ki=IC50 / (1+[S]/KM)[45]. Assays were performed in triplicate at room temperature. We next tested the PDAC activity of hHDAC10 and zHDAC10 against several polyamine substrates using the LC–MS assay (Fig. 2, Supplementary Fig. 3 and Supplementary Table 1). […] For hHDAC10 and zHDAC10, kcat/KM=2,900±200 and 4,600±300 M^−1 s^−1, respectively; in comparison, N^1-acetylspermidine was a poor substrate with kcat/KM=24±5 and 7±2 M^−1 s^−1, respectively. Substrate specificity trends observed for zHDAC10 and hHDAC10 matched those of the previously reported mammalian N^8-acetylspermidine deacetylase activity. […] As a negative control, we examined the N^8-acetylspermidine deacetylase activity of human and zebrafish HDAC6 (ref. [17]). HDAC6 preferentially catalyses the deacetylation of the peptide substrate RGK(ac)-AMC with a catalytic efficiency >100-fold greater than that for the deacetylation of N^8-acetylspermidine. Therefore, HDAC6 is clearly an acetyllysine deacetylase and HDAC10 is an N^8-acetylspermidine deacetylase. It is notable that the molecular function of HDAC10 coincides with the cellular function of the cytosolic PDAC indicated in Fig. 1a.

Substrate in data set [3]: CC(=O)NCCCCN
Further details: steady-state kinetics of acetylpolyamine deacetylation, discontinuous LC-MS after dansyl chloride derivatization. To be noted: 50.0 °C. As to the method:
as §1

Substrate in data set [4]: CC(=O)NCCCCCN
Further details: steady-state kinetics of acetylpolyamine deacetylation, discontinuous LC-MS after dansyl chloride derivatization. As to conditions: 50.0 °C. As to the method:
as §1

B1: zHDAC10Δ (Danio rerio) (protein)
chain: MASGSALIFDEEMSRYKLLWTDPACEIEVPERLTVSYEALRTHGLAQRCKAVPVRQATEQEILLAHSEEYLEAVKQTPGMNVEELMAFSKKYNDVYFHQNIYHCAKLAAGATLQLVDSVMKREVRNGMALVRPPGHHSQRSAANGFCVFNNVAIAALYAKKNYNLNRILIVDWDVHHGQGIQYCFEEDPSVLYFSWHRYEHQSFWPNLPESDYSSVGKGKGSGFNINLPWNKVGMTNSDYLAAFFHVLLPVAYEFDPELVIVSAGFDSAIGDPEGEMCALPEIFAHLTHLLMPLAAGKMCVVLEGGYNLTSLGQSVCQTVHSLLGDPTPRISGLGTACDSALESIQNVRNVQSSYWSSFKHLAQSETNPKRPRLDATNGGPKESSEPASESNPKKTAQDIVWPEPLKRMPASVRTVVVPPPGVELTLPKNCQHSGDISESTAKEVQRIRDKHFHDLTDQNILRSLGNIISVLDRMMRSDEVCNGCVVVSDLSVSVQCALQHALTEPAERVLVVYVGDGELPVKTNDGKVFLVQICTKETEDKCVNRLSLCLREGESLTAGFMQALLGLILPVAYEFNPALVLGIVGETAAKTGLMTVWGHMTCLIQGLARGRTLTLLQGYDKDLLELTVSALSGASISPLGPLRALKPEDVEMMEKQRQRLQERWGLLRCTVSES
notes: proteolytically (trypsin) nicked zHDAC10, heterodimer of PDAC and pseudo-deacetylase domains
By Km is commonly meant the substrate concentration at which the rate is half of its maximum. For orientation: kcat means the maximal rate divided by the concentration of active sites. As usually defined, the kcat/Km is the turnover number divided by the Michaelis constant. Regarding B1, the Km in data set [1] worked out at 40 ± 20 µM; in data set [2], 70 ± 30 µM; in data set [3] it was 80 ± 30 µM; in data set [4], 60 ± 10 µM. Moreover, the turnover number (kcat) in data set [2] is 0.06 ± 0.007 s⁻¹; in data set [3], 0.081 ± 0.009 s⁻¹; in data set [4], 0.036 ± 0.002 s⁻¹. Besides, the specificity constant (kcat/Km) in data set [2] was determined as 800 ± 100 M⁻¹ s⁻¹; in data set [3], 980 ± 90 M⁻¹ s⁻¹; in data set [4], 600 ± 80 M⁻¹ s⁻¹.

The values above are taken from PMC5454378, “Histone deacetylase 10 structure and molecular function as a polyamine deacetylase” (Nature Communications, 2017).
